Experimental data published in patent US12180485B2, “Repressible control of gene expression” (TRUSTEES OF BOSTON UNIVERSITY, priority 2020, dated 2024).

Each molecule was assayed on mCherry expression in HEK293 FT cells (assay: Inducible split RfxCas13d (GIB, RAP, ABA, Dano, GRZ CID domains; NES/NLS variants) mCherry knockdown, leakiness and inducibility). Conditions: inducible polypeptide systems of Tables 18-22.
Format: cell-based
Text: FIG. 6A-6C is a series of schematics and graphs showing that split RfxCas13d's reconstituted and functioned to knockdown mCherry expression in HEK293 FT cells FIG. 6A is a schematic showing split sites selected throughout RfxCas13d sequence. FIG. 6B is a bar graph showing mCherry expression under 4 conditions for gibberellin-inducible, rapalog-inducible, and abscisic acid-inducible inducible split Cas13d designs. In FIG. 6B and FIG. 6C, the left-right order of the bars for each split site is the same as the left-right order of the legend for each bar graph.
FIG. 7A-7E is a series of schematics and graphs showing a functional and inducible split Cas13d design. FIG. 7A is a bar graph showing additional split sites selected in RfxCas13d and tested with GIB CID domains. […] In FIG. 7A and FIG. 7C, the left-right order of the bars for each split site is the same as the left-right order of the legend. FIG. 7B is a schematic showing the design to compartmentalize splits. Compartmentalizing moieties facilitates the reduction of leakiness. […] FIG. 7D is a schematic showing the experiment flow for testing reversibility of the inducible split Cas13d's.
FIG. 8A-8B is a series of schematics and graphs showing that split RfxCas13d's reconstituted upon drug-induced dimerization and knocked down mCherry expression in HEK293 FT cells. FIG. 8A is a bar graph showing quantification of system performance. The left-right order of the bars for each split site is the same as the top-down order of the legend. […] System performance in leakiness score (left axis) and induced activity (right axis) by GIB, RAP, ABA, and Dano-inducible split Cas13d designs.
FIG. 10A-10B is a series of schematics and graphs showing performance optimization through separating split Cas13d moieties in different cellular compartments. […] The left-right order of the bars for each bar graph is the same as the top-down order of the legend.
FIG. 11 is a series of schematics and graphs showing the testing of reversed orientation (dark grey dots) of CID domains with respect to split Cas13d pieces against original orientations (light grey dots) designed for GIB, ABA, Dano, and GRZ inducible systems.

| Molecule | performance in the tested conditions |
| --- | --- |
| SEQ ID NO: 810: inducible system polypeptide, probably Table 20 (GID-GAI) (protein) MIEKKKSFAKGMGVKSTLVSGSKVYMTTFAEGSDARLEKIVEGDSIRSVNEGEAFSAEMADKNAGYKIGNAKFSHPKGYAVVANNPLYTGPVQQDMLGLKETLEKRYFGESADGNDNICIQVIHNILDIEKILAEYITNAAYAVNNISGLDKDIIGFGKFSTVYTYDEFKDPEHHRAAFNNNDKLINAIKAQYDEFDNFLDNPRLGYFGQAFFSKEGRNYIINYGNECYDILALLSGLRHWVVHNNEEESRISRTWLYNLDKNLDNEYISTLNYLYDRITNELTNSFSKNSAANVNYIAETLGINPAEFAEQYFRFSIMKEQKNLGFNITKLREVMLDRKDMSEIRKNHKVFDSIRTKVYTMMDFVIYRYYIEEDAKVAAANKSLPDNEKSLSEKDIFVINLRGSFNDDQKDALYYDEANRIWRKLENIMHNIKEFRGNKTREYKKKDAPRLPRILPAGRDVSAFSKLMYALTMFLDGKEINDLLTTLINKFDNIQSFLKVMPLIGVNAKFVEEYAFFKDSAKIADELRLIKSFARMGEPIADARRAMYIDAIRILGTNLSGGSGSGSSGGSGTMKRDHHHHHHQDKKTMMMNEEDDGNGMDELLAVLGYKVRSSEMADVAQKLEQLEVMMSNVQEDDLSQLATETVHYNPAELYTWLDSMLTDLNPKKKRKV | highest performance |
| SEQ ID NO: 813: inducible system polypeptide, probably Table 20 (GID-GAI) (protein) MAASDEVNLIESRTVVPLNTWVLISNFKVAYNILRRPDGTFNRHLAEYLDRKVTANANPVDGVFSFDVLIDRRINLLSRVYRPAYADQEQPPSILDLEKPVDGDIVPVILFFHGGSFAHSSANSAIYDTLCRRLVGLCKCVVVSVNYRRAPENPYPCAYDDGWIALNWVNSRSWLKSKKDSKVHIFLAGDSSGGNIAHNVALRAGESGIDVLGNILLNPMFGGNERTESEKSLDGKYFVTVRDRDWYWKAFLPEGEDREHPACNPFSPRGKSLEGVSFPKSLVVVAGLDLIRDWQLAYAEGLKKAGQEVKLMHLEKATVGFYLLPNNNHFHNVMDEISAFVNAECSGGSGSGSSGGSGTAKFVEEYAFFKDSAKIADELRLIKSFARMGEPIADARRAMYIDAIRILGTNLSYDELKALADTFSLDENGNKLKKGKHGMRNFIINNVISNKRFHYLIRYGDPAHLHEIAKNEAVVKFVLGRIADIQKKQGQNGKNQIDRYYETCIGKDKGKSVSEKVDALTKIITGMNYDQFDKKRSVIEDTGRENAEREKFKKIISLYLTVIYHILKNIVNINARYVIGFHCVERDAQLYKEKGYDINLKKLEEKGFSSVTKLCAGIDETAPDKRKDVEKEMAERAKESIDSLESANPKLYANYIKYSDEKKAEEFTRQINREKAKTALNAYLRNTKWNVIIREDLLRIDNKTCTLFRNKAVHLEVARYVHAYINDIAEVNSYFQLYHYIMQRIIMNERYEKSSGKVSEYFDAVNDEKKYNDRLLKLLCVPFGYCIPRFKNLSIEALFDRNEAAKFDKEKKKVSGNSGSGPKKKRKVPKKKRKV | highest performance |
| SEQ ID NO: 814: inducible system polypeptide, probably Table 20 (GID-GAI) (protein) MIEKKKSFAKGMGVKSTLVSGSKVYMTTFAEGSDARLEKIVEGDSIRSVNEGEAFSAEMADKNAGYKIGNAKFSHPKGYAVVANNPLYTGPVQQDMLGLKETLEKRYFGESADGNDNICIQVIHNILDIEKILAEYITNAAYAVNNISGLDKDIIGFGKFSTVYTYDEFKDPEHHRAAFNNNDKLINAIKAQYDEFDNFLDNPRLGYFGQAFFSKEGRNYIINYGNECYDILALLSGLRHWVVHNNEEESRISRTWLYNLDKNLDNEYISTLNYLYDRITNELTNSFSKNSAANVNYIAETLGINPAEFAEQYFRFSIMKEQKNLGFNITKLREVMLDRKDMSEIRKNHKVFDSIRTKVYTMMDFVIYRYYIEEDAKVAAANKSLPDNEKSLSEKDIFVINLRGSFNDDQKDALYYDEANRIWRKLENIMHNIKEFRGNKTREYKKKDAPRLPRILPAGRDVSAFSKLMYALTMFLDGKEINDLLTTLINKFDNIQSFLKVMPLIGVNSGGSGSGSSGGSGTMKRDHHHHHHQDKKTMMMNEEDDGNGMDELLAVLGYKVRSSEMADVAQKLEQLEVMMSNVQEDDLSQLATETVHYNPAELYTWLDSMLTDLNPKKKRKV | highest performance |
